Test results published in US10954305B2 (Immunomedics, Inc., priority 2016, dated 2021).

Key:
Capan-1 tumors = assay: CL2 vs CL2A linker, Capan-1 xenograft; format: in vivo, mice; details: 0.2 mg/kg SN-38 twice weekly × 4 weeks
Method: FIG. 4C. […] Capan-1 mice (N=10) were treated with 0.2 mg/kg ADC and tumors measured weekly.

[1] = tolerability in Cynomolgus monkeys; format: in vivo
Method: FIG. 6C. […] All animals were bled on day −1, 3, and 6. Four monkeys were bled on day 11 in the 0.96 mg/kg group, 3 in the 1.92 mg/kg group. Changes in neutrophil counts in Cynomolgus monkeys.
FIG. 6D. […] All animals were bled on day −1, 3, and 6. Four monkeys were bled on day 11 in the 0.96 mg/kg group, 3 in the 1.92 mg/kg group. Changes in platelet counts in Cynomolgus monkeys.

[2] = system: diverse metastatic solid cancers; assay: Phase I/II clinical trial of IMMU-132, all tumor types; format: in vivo, human
Method: Dose escalation followed a standard 3+3 scheme with 4 planned dose levels and dose delay or reduction allowed. Twenty-five patients (52-60 years old, 3 median prior chemotherapy regimens) were treated at dose levels of 8 (N=7), 10 (N=6), 12 (N=9), and 18 (N=3) mg/kg. […] Lower doses were acceptable for extended treatment with no treatment-related grade 4 toxicities and grade 3 toxicities limited to fatigue (N=3), neutropenia (N=2), diarrhea (N=1), and leukopenia (N=1). […] No pre-selection of patients based on tumor Trop-2 expression was undertaken.
The trial was designed as a standard 3+3 Phase I design, starting at a dose of 8 mg/kg per injection, with dosages given weekly for 2 weeks in a 3-week treatment cycle.
Prior to the start of each infusion, most patients received acetaminophen, anti-histamines (H1 and H2 blockers), and dexamethasone. Prophylactic use of antiemetics or anti-diarrheal medications was prohibited. Therapy consisted of 2 consecutive doses given on days 1 and 8 of a 3-week treatment cycle, with the intent to allow patients to continue treatment for up to 8 cycles (i.e., 16 treatments) unless there was unacceptable toxicity or progression. Patients showing disease stabilization or response after 8 cycles could continue treatments.

[3] = Phase I/II clinical trial of IMMU-132, adverse events; format: in vivo, human; details: for dose-limiting toxicity: Phase I
Source text: The maximum tolerated dose (MTD) was judged on the patient's tolerance to the first treatment cycle.

[4] = Phase I/II clinical trial of IMMU-132, pharmacokinetics; details: for serum hRS7 IgG, Max / serum hRS7 IgG, Min / serum intact ADC, Max / serum intact ADC, Min / serum hRS7 IgG, Mean / serum intact ADC, Mean: 0.5 h after first dose
Method: SN-38 was measured by HPLC.
Blood samples were taken within ˜30 min from the end of the infusion (e.g., peak) and then prior to each subsequent injection (e.g., trough). […] Serum samples from seven patients also were assayed for SN-38 content, both total (representing SN-38 bound to the IgG and free) and free SN-38 (i.e., unbound SN-38).

HCC1395 (Trop-2−) = assay: dsDNA breaks, rH2AX flow cytometry; format: cell-based, human; details: untreated baseline 122
Method: For drug activity testing, HCC1806 and HCC1395 TNBC cell lines cells were seeded in 6-well plates at 5×10^5 cells/well and held at 37° C. overnight. […] The signal intensity of rH2AX was measured by flow cytometry using a BD FACSCalibur (BD Biosciences, San Jose, Calif.).
The cells were then washed to remove unbound conjugate, and then incubated overnight at 37° C.

MDA-MB-468 TNBC tumors = assay: MDA-MB-468 TNBC xenograft therapy; format: in vivo, nude mice; details: one animal each, tumors progressed after irinotecan
Source text: The size of the tumors in the individual animals of this group from the onset of tumor transplantation is given.

[5] = mouse, in vivo
BxPC-3 = assay: ADCC of hRS7-ADCs vs hRS7 IgG; format: cell-based, human; details: 33.3 nM; effector to target ratio 100:1
Method: The ADCC activity of various hRS7-ADC conjugates was determined in comparison to hRS7 IgG (FIG. 3). PBMCs were purified from blood purchased from the Blood Center of New Jersey. A Trop-2-positive human pancreatic adenocarcinoma cell line (BxPC-3) was used as the target cell line with an effector to target ratio of 100:1. […] All were used at 33.3 nM.

CDC activity = format: cell-based

## IMMU-132
Capan-1 tumors
  mice tumor-free at end of study (day 140): 50%
[1]; cynomolgus monkey, in vivo
  MTD: 2×0.96 and 1.92
  human equivalent dose of MTD: 2×0.3 to 0.6
[1]; cynomolgus monkey, in vivo, 0.96 mg/kg
  blood counts: only transient decreases in blood counts
[1]; mild and reversible toxicity
  tolerated dose: 0.96 mg/kg/dose
[2]; 12 patients
  duration of maintained disease control: 16-36 weeks
[2]; 24 assessable patients, Phase I
  long-term stable disease: Over 80%
[2]; 48 assessable patients (excluding PDC)
  disease response: 79%
[2]; 48 patients
  TTP, range: 6.0 to 51.4 wks
  time to progression (TTP): ≥ 12.6 wks
[2]; Phase I, 25 patients
  patients with partial response: 3
  patients with progression (PD): 7
  patients with stable disease: 15
[2]; human, in vivo
  responses or disease stabilization after prior topoisomerase I inhibitor: 7 of 9
[2]; of 48 assessable patients
  PD: 14
  PR: 7
[3]; 10 mg/kg
  grade-3 diarrhea, patients: 1
[3]; 18 mg/kg, 3 treated
  Dose-limiting toxicity 1st cycle, patients: 2
[3]; 49 patients reporting related AE
  neutropenia >Grade 3: 28%
[3]; 261 patients enrolled
  incidence of Grade 3 or higher adverse events other than neutropenia: less than 10%
[3]; N = 47
  Abdominal pain, Grade 3, n (%): 0
  Abdominal pain, Grade 4, n (%): 0
  Anemia, Grade 3, n (%): 2 (4%)
  Anemia, Grade 4, n (%): 0
  Deep vein thrombosis, Grade 3, n (%): 1 (2%)
  Deep vein thrombosis, Grade 4, n (%): 0
  Diarrhea, Grade 3, n (%): 4 (9%)
  Diarrhea, Grade 4, n (%): 0
  Dysgeusia, Grade 3, n (%): 0
  Dysgeusia, Grade 4, n (%): 0
  Fatigue, Grade 3, n (%): 4 (9%)
  Fatigue, Grade 4, n (%): 0
  Febrile Neutropenia, Grade 3, n (%): 1 (2%)
  Febrile Neutropenia, Grade 4, n (%): 2 (4%)
  Hypokalemia, Grade 3, n (%): 1 (2%)
  Hypokalemia, Grade 4, n (%): 0
  Nausea, Grade 3, n (%): 0
  Nausea, Grade 4, n (%): 0
  Neutropenia, Grade 3, n (%): 11 (24%)
  Neutropenia, Grade 4, n (%): 2 (4%)
  Pyrexia, Grade 3, n (%): 0
  Pyrexia, Grade 4, n (%): 0
  Vomiting, Grade 3, n (%): 1 (2%)
  Vomiting, Grade 4, n (%): 0
  WBC Decrease, Grade 3, n (%): 1 (2%)
  WBC Decrease, Grade 4, n (%): 0
[3]
  dose-limiting toxicity: neutropenia
[3]; listed as sacituzumab govitecan
  dose-limiting toxicity: Neutropenia
[4]; 8 mg/kg
  serum hRS7 IgG, Max: 249.0 µg/mL
  serum hRS7 IgG, Min: 96.0 µg/mL
  serum intact ADC, Max: 169.3 µg/mL
  serum intact ADC, Min: 95.0 µg/mL
[4]; 8 mg/kg, N 7
  serum hRS7 IgG, Mean: 193.1 µg/mL
  serum intact ADC, Mean: 141.5 µg/mL
[4]; 10 mg/kg
  serum hRS7 IgG, Max: 285.85 µg/mL
  serum hRS7 IgG, Min: 152.00 µg/mL
  serum intact ADC, Max: 237.39 µg/mL
  serum intact ADC, Min: 144.00 µg/mL
[4]; 10 mg/kg, N 5
  serum hRS7 IgG, Mean: 203.35 µg/mL
  serum intact ADC, Mean: 185.77 µg/mL
[4]; 12 mg/kg
  serum hRS7 IgG, Max: 400.0 µg/mL
  serum hRS7 IgG, Min: 168.9 µg/mL
  serum intact ADC, Max: 311.0 µg/mL
  serum intact ADC, Min: 98.0 µg/mL
[4]; 12 mg/kg, N 9
  serum hRS7 IgG, Mean: 239.2 µg/mL
  serum intact ADC, Mean: 183.3 µg/mL
[4]; 18 mg/kg
  serum hRS7 IgG, Max: 499.00 µg/mL
  serum hRS7 IgG, Min: 321.48 µg/mL
  serum intact ADC, Max: 423.00 µg/mL
  serum intact ADC, Min: 162.80 µg/mL
[4]; 18 mg/kg, N 3
  serum hRS7 IgG, Mean: 409.16 µg/mL
  serum intact ADC, Mean: 258.27 µg/mL
[4]; 30 min after end of infusion
  SN-38 in serum bound to IgG, peak samples: > 96%
[4]; HPLC
  SN-38 in serum bound to IgG: > 95%
[4]; human, in vivo
  clearance of conjugate from serum: ≤ 3 days
[4]; one patient, 12 mg/kg
  SN-38 bound to IgG, peak sample: 4000 ng/mL
[4]; patient 15
  free SN-38, 30-min serum: 88 to 102 ng/mL
  free SN-38 as share of total SN-38: 2.4% to 3.6%
[4]; patient 15, 6th cycle, 6.0 mg/kg
  total SN-38, 30-min serum: 2,381 ng/mL
[4]; patient 15, C1D1, 12 mg/kg
  total SN-38, 30-min serum: 3,930 ng/mL
[4]; patient 15, C1D2, 9.0 mg/kg
  total SN-38, 30-min serum: 2,947 ng/mL
[4]; patient #25, 13.5 mg/kg
  SN-38G share of total SN-38+SN-38G: 11.6%
[4]; patient #25, 13.5 mg/kg, 11 peak samples
  total SN-38 (acid-hydrolyzed), average: 3309.8 ± 601.8 ng/mL
[4]; patient #25, 18 mg/kg
  SN-38G share of total unbound SN-38+SN-38G: 14.4%
  free SN-38 (non-hydrolyzed): 155.2 ng/mL
  total SN-38 (acid-hydrolyzed): 5,089 ng/mL
[4]; serum drawn immediately before next dose
  intact conjugate in trough samples: no sacituzumab govitecan could be detected
HCC1395 (Trop-2−)
  Median fluorescence intensity (rH2AX): 123
MDA-MB-468 TNBC tumors
  decrease in tumor size on re-treatment: 60%
[5]
  chloride levels, range: 116 to 127 mmol/L
[5]; 8 mg/kg
  glucose levels, range: 273 to 320 mg/dL

## hRS7 IgG
BxPC-3
  specific lysis (ADCC): 8.5%
CDC activity
  CDC activity: no CDC activity
